Measurements published in patent US20240166765A1, “INFLAMMATORY DISEASE TREATMENT USING ANTI-TISSUE FACTOR ANTIBODIES” (Iconic Therapeutics LLC, priority 2020, published 2024).

Legend:
[1] = biological target: T1, chimeric human-rat TF constructs expressed on HEK293 cells (Homo sapiens, UniProt P13726, K181N); assay: Epitope binning, chimeric TF construct mapping (live cell staining assay); format: binding
T1 construct: expressed in transfected cells; host or cells: HEK293
Description: (§1) To establish binding of the anti-human TF antibodies to the various TF constructs, HEK293 cells were transfected with a DNA plasmid that co-expresses the TF construct and a green fluorescent protein marker. For a subset of the antibodies, an antibody titration (a 12-point 1:3 dilution series starting at 250 nM) was evaluated on select TF constructs (See international PCT application PCT/US2019/012427 and U.S. utility application Ser. No. 16/959,652, incorporated herein by reference in their entirety). […] Two days after transfection, cells were collected from the tissue culture plate, stained with 15 μg/ml of the indicated anti-TF antibody, washed, stained with anti-human IgG-Fc Alexa Fluor 647 polyclonal antibody, washed, and stained with the viability dye 4′,6-Diamidino-2-Phenylindole, Dihydrochloride. Upon acquisition of 80,000 live events on a flow cytometer, live cells marked with the fluorescent marker were analyzed for the degree of staining by the anti-TF antibody. […] As used herein, the term “live cell staining assay” refers to the antibody binding assay used in this example.
(§2) When “Percentage antibody binding to TF construct relative to hTF” in Tables 51 and 52 was less than 50%, the antibody was considered a non-binder (0) in Tables 53 and 54.

[2] = biological target: T2, chimeric human-rat TF constructs expressed on HEK293 cells (Homo sapiens, UniProt P13726, K100N); assay: as above; format: binding; conditions: construct hTF_K68N
T2 construct: expressed in transfected cells; host or cells: HEK293
Description: as §1, §2

[3] = biological target: T3, chimeric human-rat TF constructs expressed on HEK293 cells (Homo sapiens, UniProt P13726, D177Q/E160K/E162S/F148Y/I184G/K181N/L140I/N156K/N170G/R163F/R168K/S147K/S174T/T144V/T186I/V151G/V155L/W190R/Y188T); assay: as above; format: binding; conditions: construct h108-158_r (19); human segment replaced by rat segment
T3 construct: expressed in transfected cells; host or cells: HEK293
Description: as §1, §2

[4] = biological target: T4, chimeric human-rat TF constructs expressed on HEK293 cells (Homo sapiens, UniProt P13726, E58Q/K47I/N50D/Q64Y/V62T/V65T); assay: as above; format: binding; conditions: construct h1-38_r (14); human segment replaced by rat segment
T4 construct: expressed in transfected cells; host or cells: HEK293
Description: as §1, §2

[5] = biological target: T5, chimeric human-rat TF constructs expressed on HEK293 cells (Homo sapiens, UniProt P13726); assay: as above; format: binding; conditions: construct hTF
T5 construct: expressed in transfected cells; host or cells: HEK293
Description: as §1, §2

[6] = biological target: T6, chimeric human-rat TF constructs expressed on HEK293 cells (Homo sapiens, UniProt P13726, P226F); assay: as above; format: binding; conditions: construct h190-219_r (16); human segment replaced by rat segment
T6 construct: expressed in transfected cells; host or cells: HEK293
Description: as §1, §2

[7] = biological target: T7, chimeric human-rat TF constructs expressed on HEK293 cells (Homo sapiens, UniProt P13726, A112W/A121H/D76N/DEL115-116/DUP123-123/E127T/E131K/E137D/E58Q/F108L/F82T/G113R/G75R/INS118HGKETLF/K100N/K47I/K73R/L104E/L125P/L136R/N139K/N50D/P130R/Q101W/Q64Y/S120T/S129A/S79Y/T133L/T72D/V62T/V65T/Y110V/Y126F/Y83G); assay: as above; format: binding; conditions: construct h1-107_r (52); human segment replaced by rat segment
T7 construct: expressed in transfected cells; host or cells: HEK293
Description: as §1, §2

[8] = biological target: T8, chimeric human-rat TF constructs expressed on HEK293 cells (Homo sapiens, UniProt P13726, N203H/T229K); assay: as above; format: binding; conditions: construct hTF_N171H_T197K
T8 construct: expressed in transfected cells; host or cells: HEK293
Description: as §1, §2

[9] = biological target: T9, chimeric human-rat TF constructs expressed on HEK293 cells (Homo sapiens, UniProt P13726, D76N/F108L/F82T/G75R/K100N/K73R/L104E/Q101W/S79Y/T72D/Y83G); assay: as above; format: binding; conditions: construct h39-77_r (11); human segment replaced by rat segment
T9 construct: expressed in transfected cells; host or cells: HEK293
Description: as §1, §2

[10] = tested on: thrombin generation (relipidated TF in normal pooled plasma); assay: Thrombin generation assay (TGA) with 10 min antibody pre-incubation; format: biochemical, human; conditions: Ab conc. 10 nM
Description: (§3) The TGA assay was performed using the calibrated-automated-thrombogram (CAT) instrument manufactured and distributed by STAGO. The test method design was equivalent to a standard CAT assay measurement, except that the plasma source was NPP in citrate/CTI. […] Relipidated TF was added to a 96-well assay plate, followed by addition of the antibody/NPP mixture. After a 10-min incubation or directly after combining the relipidated TF with antibody/NPP, thrombin generation was initiated by the addition of calcium and the thrombin substrate. The STAGO software was used to report the following parameters: Peak IIa (highest thrombin concentration generated [nM]); Lag Time (time to IIa generation [min]); ETP (endogenous thrombin potential, area under the curve [nM×min]); and ttPeak (time to Peak IIa [min]).
as §3, with “was normal pooled plasma (NPP)” for “was NPP”, “in citrate supplemented with corn trypsin inhibitor (citrate/CTI).” for “in citrate/CTI.”
TGA assay was performed using the calibrated-automated-thrombogram (CAT) instrument manufactured and distributed by STAGO (Diagnostica Stago SAS, Asnieres sur Seine, France). […] The anti-TF antibodies were titrated at 0, 10, 50 and 100 nM and mixed with NPP in citrate/CTI. Relipidated TF was added to a 96-well assay plate, followed by addition of the antibody/NPP mixture. After a 10-min incubation or directly after combining the relipidated TF with antibody/NPP, thrombin generation was initiated by the addition of calcium and the thrombin substrate. The STAGO software was used to report the following parameters: Peak IIa (highest thrombin concentration generated on the thrombin generation curve [nM]); Lag Time (time from assay start to the moment 10 nM of thrombin is formed [min]); ETP (endogenous thrombin potential, area under the curve [nM×min]); and ttPeak (time from assay start to Peak IIa [min]). […] As used herein, the term “thrombin generation assay” (TGA) refers to the TGA used in this example.

TF-011
Antibody binding to TF construct ([1]; construct h146-151_r (1), human segment replaced by rat segment): 1 (between 50% and 150%, the antibody was considered a binder (1)) | Antibody binding to TF construct ([1]; construct hTF_K149N): 1 (between 50% and 150%, the antibody was considered a binder (1)) | Antibody binding to TF construct [2]: 1 (between 50% and 150%, the antibody was considered a binder (1)) | Antibody binding to TF construct [3]: 1 (between 50% and 150%, the antibody was considered a binder (1)) | Antibody binding to TF construct [4]: 1 (between 50% and 150%, the antibody was considered a binder (1)) | Antibody binding to TF construct ([5]; Table 53): 1 (between 50% and 150%, the antibody was considered a binder (1)) | Antibody binding to TF construct ([5]; Table 54): 1 (between 50% and 150%, the antibody was considered a binder (1)) | Antibody binding to TF construct [6]: 1 (between 50% and 150%, the antibody was considered a binder (1)) | Antibody binding to TF construct [7]: 0 (less than 50%, the antibody was considered a non-binder (0)) | Antibody binding to TF construct [8]: 1 (between 50% and 150%, the antibody was considered a binder (1)) | Antibody binding to TF construct [9]: 0 (less than 50%, the antibody was considered a non-binder (0)) | ETP [10]: 792 nM·min
